Laboratory results from patent US20250257130A1 (NONA BIOSCIENCES SUZHOU, published 2025).

Experiments:
[1] = molecular target: T1, Human ROR1-ECD-his (Acro Biosystems RO1-H522y) (human, UniProt Q01973 30-406); assay: ELISA, coated hu-ROR1-ECD-his
T1 construct: extracellular domain; bought protein; also called hROR1-ECD-his; hu-ROR1-ECD-his
Procedure: (§1) Binding of recombinant anti-ROR1 antibodies to hu-ROR1-ECD-his was tested by ELISA. In brief, 1 μg/mL hu-ROR1-ECD-his was added to the 96-well plate, 100 μL each well, incubated at 4° C. overnight, washing the plates with 1×PBST 3 times, 300 ul/well, blocking the plates with 2% BSA in 1×PBST, 200 ul/well at 37° C. for 1 hour, anti-ROR1 antibodies were serially diluted in staining buffer (PBS containing 2% BSA). Antibody solution was added to the plate and incubates at 37° C. for 1 hour, washing the plates with 1×PBST 3 times, 300 ul/well, adding secondary antibody 100 ul/well and incubate at 37° C. for 1 hour, washing the plates with 1×PBST 3 times, 300 ul/well and then add 100 ul/well TMB for about 5 min, stop the reaction by adding 100 ul/well 2M H₂SO₄, read the plates with Molecular device spectra max plus384 at 450 nm and 570 nm.

[2] = molecular target: T2, cynomolgus ROR1 on CHO-K1-cynoROR1 cells (cynomolgus monkey, UniProt A0A2K5WTX7 30-937); assay: flow cytometry, CHO-K1-cynoROR1 cells
T2 construct: whole, on cells
Procedure: (§2) In brief, anti-ROR1 antibodies were serially diluted in staining buffer (PBS containing 2% FBS). Antibody solution was incubated with 1×10⁵ cells at 4° C. for 1 hour. […] After 1-hour incubation at 4° C., cells were washed twice with staining buffer and subjected to flow cytometry. PR000374 (Bench marker 1) and non-relevant IgG isotype control (Crownbio) were used as positive and negative controls, respectively.

[3] = molecular target: T1, Human ROR1-ECD-his (Acro Biosystems …); assay: BLI, ROR1-His on HIS1K sensor, antibody in solution
Procedure: In the example, binding kinetics of anti-ROR1 antibodies to soluble ROR1 protein were analyzed by using Bio-Layer Interferometry (BLI) analysis on Fortebio Octet Red384 instrument (Fortebio).
In BLI analysis, recombinant anti-ROR1 antibodies was serially diluted with 10× kinetics buffer (Fortebio). Human ROR1-His proteins were diluted to 20 nM. Then the diluted antibodies, ROR1 proteins and regeneration buffer (10 mM glycine HCl pH 1.5) were added to 96-well plates (Greiner). Rate constants for association and dissociation were measured using HIS1K sensor (Fortebio). The sensor surface was regenerated after each binding experiment with regeneration buffer. The traces were processed using Octet Data Analysis Software (version 11.0, Pall ForteBio, CA, USA).

[4] = molecular target: T3, hu-ROR2-ECD-his (Acrobiosystems RO2-H52E5) (human, UniProt Q01974 34-403); assay: ELISA, plate coated with hu-ROR2-his at 1 µg/mL
T3 construct: extracellular domain; bought protein; also called Human ROR2 his-tagged protein; Human ROR2, His Tag
Procedure: as §1, with “1” for “Binding of recombinant anti-ROR1 antibodies to hu-ROR1-ECD-his was tested by ELISA. In brief, 1”, “hu-ROR2-ECD-his (Acrobiocystems, RO2-H52E5)” for “hu-ROR1-ECD-his”

[5] = molecular target: T4, human ROR1 on cells (HEK293T-hROR1, PANC-1, A549) (human, UniProt Q01973 30-937); assay: flow cytometry, HEK293T-hROR1 cells; HEK293T-hROR1 cells (ROR1 overexpressed), FACS: binds
T4 construct: whole, on cells; one molecule for the three cell lines; also called huROR1; cell surface ROR1
Procedure: as §2

T1 sequence (Q01973 30-406): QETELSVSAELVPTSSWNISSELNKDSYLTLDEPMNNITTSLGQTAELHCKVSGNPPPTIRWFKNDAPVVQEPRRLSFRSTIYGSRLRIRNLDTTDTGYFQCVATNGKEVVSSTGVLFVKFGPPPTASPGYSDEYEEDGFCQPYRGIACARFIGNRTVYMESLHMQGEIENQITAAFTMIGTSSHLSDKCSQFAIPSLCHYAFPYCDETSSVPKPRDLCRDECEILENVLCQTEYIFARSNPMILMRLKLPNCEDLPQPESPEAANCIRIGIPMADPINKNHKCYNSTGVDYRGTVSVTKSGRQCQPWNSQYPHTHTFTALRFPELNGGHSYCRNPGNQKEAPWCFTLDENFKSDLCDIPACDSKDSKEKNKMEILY
T4 sequence (Q01973 30-937): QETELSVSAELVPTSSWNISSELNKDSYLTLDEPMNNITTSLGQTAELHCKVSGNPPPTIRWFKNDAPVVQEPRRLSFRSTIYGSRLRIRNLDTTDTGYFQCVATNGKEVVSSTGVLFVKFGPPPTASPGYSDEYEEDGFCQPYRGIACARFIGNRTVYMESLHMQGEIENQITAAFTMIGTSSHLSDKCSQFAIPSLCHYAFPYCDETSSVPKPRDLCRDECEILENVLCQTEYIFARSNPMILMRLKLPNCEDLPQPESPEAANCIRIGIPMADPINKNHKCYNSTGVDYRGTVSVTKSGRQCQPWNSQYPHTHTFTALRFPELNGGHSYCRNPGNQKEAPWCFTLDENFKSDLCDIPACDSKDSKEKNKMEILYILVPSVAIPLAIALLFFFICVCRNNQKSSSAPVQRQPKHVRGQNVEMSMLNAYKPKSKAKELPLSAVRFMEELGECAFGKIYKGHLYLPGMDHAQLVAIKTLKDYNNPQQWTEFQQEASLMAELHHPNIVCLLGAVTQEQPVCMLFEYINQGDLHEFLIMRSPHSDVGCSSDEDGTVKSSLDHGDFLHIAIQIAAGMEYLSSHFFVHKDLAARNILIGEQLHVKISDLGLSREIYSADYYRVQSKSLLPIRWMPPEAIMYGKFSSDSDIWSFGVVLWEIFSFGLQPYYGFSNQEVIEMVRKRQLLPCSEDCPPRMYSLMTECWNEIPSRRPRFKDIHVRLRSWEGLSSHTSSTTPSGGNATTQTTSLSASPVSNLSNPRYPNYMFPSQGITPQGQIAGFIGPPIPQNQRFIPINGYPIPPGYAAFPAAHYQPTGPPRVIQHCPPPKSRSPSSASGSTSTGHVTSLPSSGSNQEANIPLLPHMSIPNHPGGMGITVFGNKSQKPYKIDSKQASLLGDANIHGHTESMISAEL
T3 sequence (Q01974 34-403): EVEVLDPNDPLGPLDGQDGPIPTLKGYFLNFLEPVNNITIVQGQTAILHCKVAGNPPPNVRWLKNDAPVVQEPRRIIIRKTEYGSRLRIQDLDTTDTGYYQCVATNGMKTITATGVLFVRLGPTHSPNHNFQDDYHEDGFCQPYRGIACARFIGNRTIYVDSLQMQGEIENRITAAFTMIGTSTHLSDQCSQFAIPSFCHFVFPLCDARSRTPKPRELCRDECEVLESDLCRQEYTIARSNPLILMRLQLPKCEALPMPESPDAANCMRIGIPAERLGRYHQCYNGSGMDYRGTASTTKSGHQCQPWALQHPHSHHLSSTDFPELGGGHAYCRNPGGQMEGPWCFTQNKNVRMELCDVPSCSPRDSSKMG

B1: PR303189 (antibody, human IgG1, V domains shown)
VH: EVQLVESGGGLVKPGGSLRLSCAASGFNLSDSYMSWIRQAPGKGLEWVSCISSSGSTIYYADSVKGRFTVSRDNAKNSLYLQMNHLRAEDTALYYCARDCVIGIRDDSDIWGQGTMVTVSS
notes: HCAb (heavy chain-only, human IgG1 Fc), no light chain
EC50 [1]: 0.002 µg/mL
EC50 [2]: 7.53 µg/mL
MAX(MFI) [2]: 5.3e+06 MFI
Kd [3]: 623 pM
koff [3]: 0.00403 s⁻¹
kon [3]: 6.46e+06 M⁻¹ s⁻¹
binding result [4]: no binding (tested: about 15 µg/ml)
EC50 [5]: 0.085 µg/mL
